Assay results: the supplement of paper PMC9170038

Tested on: MS2 coat protein
Assay: apparent KD of MS2 coat protein; designed switch direction (-1 OFF switch, 1 ON switch): -1; higher = weaker reporter binding
Summary of the method: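 Each step of the titration lasted 0.8–1.5 h at the lowest concentration and 10–20 min at the highest. The protein, SNAP-549-labelled MS2 coat protein, went from 0.7 or 1.5 nM doubling to 3 µM over RNA switches transcribed on Illumina chips by stalled E. coli RNA polymerase. Normalised cluster fluorescence was curve-fitted, and the per-design median over clusters is given as apparent KD.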

[1] = Eterna round: R95, input ligand: microRNA oligo, concentration not stated
[2] = Eterna round: R95, input ligand: FMN 200 uM
[3] = Eterna round: R95, input ligand: none
[4] = input ligand: microRNA oligo, concentration not stated

GUGUACGGAGGAUAUAUAUGGGCAGGCUGACCUGCAGCUUCACAUGAGGAUCACCCAUGUAGAAGGCUGUACAC [Mat - Exclusion 2 - Mod of Hyphema - D98] (puzzle: Exclusion 2)
apparent KD of MS2 coat protein [1]: 33.2 nM

GUGUAGAUAGGAUAUGCAUAGAGCUUACGAAAGUAGGCUCUACAUGAGGAUCACCCAUGUAGAAGGGUCUACAC [Dot plot directed A v15] (puzzle: Exclusion 2)
apparent KD of MS2 coat protein [1]: 25 nM

GUGUAGUCAGGAUAUACAUAGGAAGAGAAUAUAAUAUAAGUACAUGAGGAUCACCCAUGUAGAAGGGACAGUGU [Excluse me!! 8 - Jieux - Exclusion 2] (puzzle: Exclusion 2)
apparent KD of MS2 coat protein [1]: 29.4 nM

GUGUGCACGCUGCGAUCCUACAUGAGGAUCACCCAUGUGGUCUGGUGGCGUGGGUCACCGGACUUGGCUCGUCUUGA [salish99_S_TOV1_R5_069] (Eterna round: R97, puzzle: Sensor, turn-off variant 1)
apparent KD of MS2 coat protein (input ligand: FMN 200 uM): 121 nM | apparent KD of MS2 coat protein (input ligand: none): 118 nM

GUGUGCAGAGGAUAUACAGAGGAAAAGAAAAGAGAAGGGAGACAUGAGGAUCACCCAUGUAGAAGGCUGAGUGU [Excluse me!! 20 - Jieux - Exclusion 2] (puzzle: Exclusion 2)
apparent KD of MS2 coat protein [1]: 63.4 nM

GUUAAACAUGAGGAUCACCCAUGUAAGGAUAUGCUGAGGUAGAGAUGAAGUGAAUGAAGCAGAAGGUACAAAUG [Mat - Mod of JL D64] (puzzle: Exclusion 1)
apparent KD of MS2 coat protein [2]: 51.5 nM | apparent KD of MS2 coat protein [1]: 83.2 nM | apparent KD of MS2 coat protein [3]: 113 nM

GUUAACGCAGGAUAUUAGUACAUGUACAUGAGGAUCACCCAUGUUUAUUGGGUCUAAGAAUAAGAAGGGCGAUGAA [JR_Ex5_Sub006] (Eterna round: R97, puzzle: Exclusion 5)
apparent KD of MS2 coat protein (input ligand: FMN 200 uM): 402 nM | apparent KD of MS2 coat protein (input ligand: none): 631 nM

GUUAAGUGAGGAUAUGGUGAGUAGUGCCAGAGCGCUGCUCACCAGAAGGCACAUGAGGAUCACCCAUGUAUAGC [Mat - Exclusion 4 - Mod of JL - D15] (puzzle: Exclusion 4)
apparent KD of MS2 coat protein [1]: 13 nM

GUUAAUUGUGACAUGGGUGACAUGAGGAUCACCCAUGUCACAAGCUUUUUGCUCGUCUUAUAAUUAACCCAUGUCAC [Stov1/13-A2] (Eterna round: R97, puzzle: Sensor, turn-off variant 1)
apparent KD of MS2 coat protein (input ligand: FMN 200 uM): 29.1 nM | apparent KD of MS2 coat protein (input ligand: none): 41.2 nM

GUUAGUUAAGGAUAUACAGGGAGCCGCGGCGUCUCGCCGCAACAUGAGGAUCACCCAUGUAGAAGGUGGCCAUU [JL ViennaUCT Enbibi mod 2] (puzzle: Exclusion 2)
apparent KD of MS2 coat protein [1]: 101 nM

GUUAUGUCAGGAUAUGCUAAUGAUGAGUGAUCAGACAUGAUGUAGAAGGGACAUGAGGAUCACCCAUGUAAUAU [EX4 #8] (Eterna round: R97, puzzle: Exclusion 4)
apparent KD of MS2 coat protein (input ligand: FMN 200 uM): 114 nM | apparent KD of MS2 coat protein (input ligand: none): 122 nM

GUUAUUAAUGUAGGAUAUGCAAGGCGAACCUAAGCAGAAGGACAUGAGGAUCACCCAUGUAUUGCGGUCUGCGUUCAGAUCGCU [salish99_ExNG1_r4_012] (Eterna round: R96, puzzle: Exclusion NG 1)
apparent KD of MS2 coat protein (input ligand: FMN 200 uM): 39.9 nM | apparent KD of MS2 coat protein [4]: 15.8 nM | apparent KD of MS2 coat protein (input ligand: none): 19.4 nM

GUUCACGUAGGAUAUACGGUUGGUGUGCGCGAAGGCCUUUGACAUGAGGAUCACCCAUGUAGAAGGACGAUGAA [EX2 C.24] (Eterna round: R97, puzzle: Exclusion 2)
apparent KD of MS2 coat protein (input ligand: FMN 200 uM): 32.1 nM | apparent KD of MS2 coat protein (input ligand: none): 31 nM

GUUCCACGAGGAUAUGAGGGCAACUACAUGAGGAUCACCCAUGUGAGCGAUCCUCAGAAGUCAGAAGGCGUGGAGA [Eternabot (L2) Solution 77] (Eterna round: R97, puzzle: Exclusion 5)
apparent KD of MS2 coat protein (input ligand: FMN 200 uM): 63.7 nM | apparent KD of MS2 coat protein (input ligand: none): 70.4 nM

GUUGGAUGAGGAUAUCGAGGUUAGUACAUGAGGAUCACCCAUGUUAUCCAGGUGUCGGUUCGAGAAGGCAUUGGAC [LRO-Ex5-14] (Eterna round: R96, puzzle: Exclusion 5)
apparent KD of MS2 coat protein (input ligand: FMN 200 uM): 104 nM | apparent KD of MS2 coat protein [4]: 27.8 nM | apparent KD of MS2 coat protein (input ligand: none): 34.7 nM

GUUGGAUGAGGAUAUCGAGGUUAGUACAUGAGGAUCACCCAUGUUAUCCAGGUGUCGGUUCGAGAAGGCAUUGGAC [LRO-Ex5-14] (puzzle: Exclusion 5)
apparent KD of MS2 coat protein [1]: 32.9 nM

GUUGUCCUUGUAAGGAUAUCCGGAUAGAGCAUAUCGGAGAAGGUACAUGAGGAUCACCCAUGUCUCACCGUGCU [Eternabot (L1) Solution 95] (Eterna round: R97, puzzle: Brourd's mod of Exclusion 4)
apparent KD of MS2 coat protein (input ligand: FMN 200 uM): 14.4 nM | apparent KD of MS2 coat protein (input ligand: none): 14.3 nM

GUUUAGUGAGGAUAUGUGGCUUCGAUCGUGAGAUCGAGGCUACAGAAGGCACAUGAGGAUCACCCAUGUUCCUA [salish99_ex4_r4_107] (Eterna round: R97, puzzle: Exclusion 4)
apparent KD of MS2 coat protein (input ligand: FMN 200 uM): 87.7 nM | apparent KD of MS2 coat protein (input ligand: none): 16.5 nM

GUUUCACAUGAGGAUCACCCAUGUGAGGAUAUCAAUUUGUUAACCGUAGUUAAUAGAUUGAGAAGGCGCGUGAU [JRxlusion 2- Jieux - Exclusion 1] (Eterna round: R97, puzzle: Exclusion 1)
apparent KD of MS2 coat protein (input ligand: FMN 200 uM): 64.5 nM | apparent KD of MS2 coat protein (input ligand: none): 49 nM

GUUUCACAUGAGGAUCACCCAUGUGAGGAUAUGCAUUUGUUAACCGUAGUUAAUAGAUGCAGAAGGCGCGUGAU [JRxlusion 5 - Jieux - Exclusion 1] (Eterna round: R97, puzzle: Exclusion 1)
apparent KD of MS2 coat protein (input ligand: FMN 200 uM): 69.8 nM | apparent KD of MS2 coat protein (input ligand: none): 65 nM

GUUUGACAUGAGGAUCACCCAUGUGAGGAUAUACGAUUAGCUGCUAGGUAGUUAGUAUGUAGAAGGUGCGUGUU [EX1 #69] (Eterna round: R97, puzzle: Exclusion 1)
apparent KD of MS2 coat protein (input ligand: FMN 200 uM): 97.9 nM | apparent KD of MS2 coat protein (input ligand: none): 117 nM

GUUUUACAUGAGGAUCACCCAUGUGAGGAUAUAUUAUUAAUAGUGAUAAUUAUUGGUGGUAGAAGGCGCGUGAU [JR_Exc1_Sub012] (Eterna round: R97, puzzle: Exclusion 1)
apparent KD of MS2 coat protein (input ligand: FMN 200 uM): 50.9 nM | apparent KD of MS2 coat protein (input ligand: none): 53.1 nM

GUUUUGAGACGGAGAUCCGACAUGAGGAUCACCCAUGUCUCACAAGCUUUUUGCUCGUCUUAUACUCCUCUGUUCUC [Elimod 44 - Jieux - Sensor, turn-off variant 1] (Eterna round: R97, puzzle: Sensor, turn-off variant 1)
apparent KD of MS2 coat protein (input ligand: FMN 200 uM): 17 nM | apparent KD of MS2 coat protein (input ligand: none): 17.6 nM

UAAAACCGGUGAGGAUAUUUUUAAUAGAGCUUUAUGAUAUACAUGAGGAUCACCCAUGUUACGUUAAAGAAGGCAUCGGAAAAU [Mat - Exclusion NG 2 - Mod of JL - D99] (Eterna round: R96, puzzle: Exclusion NG 2)
apparent KD of MS2 coat protein (input ligand: FMN 200 uM): 13.7 nM | apparent KD of MS2 coat protein [4]: 14.5 nM | apparent KD of MS2 coat protein (input ligand: none): 19.9 nM

UAAAAGGUAGGAUAUACGAAAAAAAAGGGUAGAAAAAAAACACAUGAGGAUCACCCAUGUAGAAGGACCAAAAG [salish99_ex2_r3_048] (puzzle: Exclusion 2)
apparent KD of MS2 coat protein [2]: 64.3 nM | apparent KD of MS2 coat protein [1]: 29.8 nM | apparent KD of MS2 coat protein [3]: 30.1 nM

UAAAAUUUAGGAUAUGCGUGAGAUAGAGUACGAUGAGCUGCACAUGAGGAUCACCCAUGUAGAAGGAAAUUUUA [-11, -8.6 kcal, 36% A] (Eterna round: R97, puzzle: Exclusion 2)
apparent KD of MS2 coat protein (input ligand: FMN 200 uM): 58 nM | apparent KD of MS2 coat protein (input ligand: none): 31.2 nM
